The assay has as its target human IL-23 (human) (UniProt P29460). In words: cell-based or functional assay.

human IL-23 (human), sequence (chain, as listed by the source limits assumed, chain 1 of 2): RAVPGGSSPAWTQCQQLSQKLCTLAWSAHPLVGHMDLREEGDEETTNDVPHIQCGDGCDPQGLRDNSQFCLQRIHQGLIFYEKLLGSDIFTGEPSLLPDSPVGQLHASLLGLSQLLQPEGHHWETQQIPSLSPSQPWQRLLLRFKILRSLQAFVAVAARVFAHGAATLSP
human IL-23 (human), sequence (P29460 23-328 limits assumed, chain 2 of 2): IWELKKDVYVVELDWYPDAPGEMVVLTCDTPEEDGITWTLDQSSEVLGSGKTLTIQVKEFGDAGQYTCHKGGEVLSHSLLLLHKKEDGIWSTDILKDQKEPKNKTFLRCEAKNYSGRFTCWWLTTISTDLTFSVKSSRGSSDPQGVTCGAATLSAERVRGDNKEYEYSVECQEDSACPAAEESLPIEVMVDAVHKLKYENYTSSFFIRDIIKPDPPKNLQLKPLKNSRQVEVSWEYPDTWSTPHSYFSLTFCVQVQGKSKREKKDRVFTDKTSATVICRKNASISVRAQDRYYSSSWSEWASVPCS

isotype control antibody came in with a Ct value, murine IL-17A mRNA in skin injected with human IL-23 (in vivo neutralization) of 35.4 Ct and a Ct value, murine IL-17F mRNA in skin injected with human IL-23 (in vivo neutralization) of 31.6 Ct.

For the origin of these results see patent publication US20170275356A1.
